{"source": "patent US9732120B2", "about": "“Self-assembled peptide nanostructures by exploiting conformational change, biosensor using the same and detection method of biomolecules using the same” (INDUSTRY-ACADEMIC COOPERATION FOUNDATION, YONSEI UNIVERSITY, priority 2014, dated 2017)", "format_in_all_cases": "physicochemical", "key": {"[1]": {"assay": "Fluorescence spectroscopy of the amphiphilic peptide in water or 150 mM KF (pyrene excimer)", "conditions": "0.25-20 μM peptide", "procedure": "The amphiphilic peptide prepared in Preparation Example was subjected to fluorescence spectroscopic measurement after dissolving in water or a 150 mM KF solution. Details are as follows.\nFluorescence spectra were measured using the LS55 fluorescence spectrometer (PerkinElmer). Pyrene was excited at 341 nm and the emission spectra were recorded in the range of 360-550 nm. The solid (-) curve indicates the amphiphilic peptide dissolved in 150 mM KF and the dotted ( . . . ) curve indicates the amphiphilic peptide dissolved in water.\nAlso, emission spectra were measured after dissolving 0.25-20 μM of the amphiphilic peptide prepared in Preparation Example in water (a) or a KF solution (b)."}, "[2]": {"assay": "Circular dichroism (CD) spectroscopy of the amphiphilic peptide depending on ionic strength and pH", "conditions": "for [θ]222/[θ]208 (degree of α-helix stabilization): 4° C., 1 μM peptide", "procedure": "Circular dichroism (CD) spectroscopic analysis was performed as follows in order to investigate the dependence of the conformation of the amphiphilic peptide prepared in Preparation Example on ionic strength.\nCD spectra were recorded using the Chirascan circular dichroism spectrometer equipped with a Peltier thermostat. The spectra were recorded between 260 nm and 190 nm using a 2-mm path cuvette. 10 scans were averaged. Also, molar ellipticity per amino acid residue was calculated. The peptide concentration was 1 μM unless specified otherwise and the sample solution incubated at least for a day before the measurement.\nIn the graph, ∘ indicates the peptide dissolved in water, and • indicates the peptide dissolved in 150 mM KF. In Test Example 1, the measurement of the samples was measured at 4° C."}, "[3]": {"assay": "Atomic force microscopy (AFM) of the amphiphilic peptide", "procedure": "The amphiphilic peptide prepared in Preparation Example was subjected to atomic force microscopic (AFM) measurement. Atomic force microscopic scanning was made at 1.2-1.5 V with 0.5 Hz. The result is shown in FIGS. 15a-15b and FIGS. 16a-16b.\nFIGS. 15a and 15b show atomic force microscopic (AFM) images of 2.5 μM of the amphiphilic peptide dissolved in water. FIG. 15a is a height image and FIG. 15b is a phase image.\nFIGS. 16a and 16b show atomic force microscopic (AFM) images of 1 μM of the amphiphilic peptide dissolved in a 150 mM KF solution. FIG. 16a is a height image and FIG. 16b is a phase image."}}, "note": "No end group written: not given here. *: point of attachment. Butanoyl(4-pyren-1-yl) = O=C(CCCc1ccc2ccc3cccc4ccc1c2c34)*", "data": [{"substance": "amphiphilic peptide prepared in Preparation Example: hairpin-shaped amphiphilic peptide derived from HIV-1 rev protein (Rev12-64) with a pyrene group bound to the N-terminal via pyrenebutyric acid ({Butanoyl(4-pyren-1-yl)}-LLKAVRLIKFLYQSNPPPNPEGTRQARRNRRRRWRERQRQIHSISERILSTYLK)", "values": [{"measurement": "excimer peak of pyrene (self-assembly)", "setting": "[1]; dissolved in pure water", "value": "no excimer peak of pyrene was observed"}, {"measurement": "excimer peak of pyrene (self-assembly)", "setting": "[1]; ionic strength 150 mM (KF)", "value": "the excimer peak of pyrene was observed"}, {"measurement": "[θ]222/[θ]208 (degree of α-helix stabilization)", "setting": "[2]; 150 mM KF (increased ionic strength)", "value": 0.71}, {"measurement": "solubility depending on pH", "setting": "[2]; CD analysis, FIG. 12", "value": "solubility decreases gradually as the pH increases"}, {"measurement": "[θ]222/[θ]208 (degree of α-helix stabilization)", "setting": "[2]; in water", "value": 0.31}, {"measurement": "particle diameter of globular nanostructures", "setting": "[3]; 1 μM peptide in 150 mM KF, AFM", "value": "20-50 nm"}, {"measurement": "state of the peptide by AFM", "setting": "[3]; 2.5 μM peptide in water", "value": "exists mostly in monomer form"}]}]}
